Experimental data reported in patent US20240132883A1, “RNA-TRIGGERED PROTEIN CLEAVAGE AND APPLICATIONS BY THE CRISPR CAS7-11-CSX29 COMPLEX” (Massachusetts Institute of Technology, published 2024).
Entries after “also recorded” stand apart in the source; their conditions may differ. Read-outs that look alike come from different tables or passages of the source. Blank lines part the entries; values can stand above or below the molecule they belong to.

Key:
[1] = molecular target: N-terminally FLAG-tagged citrine-Csx30-degron reporter (Desulfonema ishimotonii); assay: cell-based or functional assay
[2] = system: Cas7-11-Csx29 complex (mammalian codon-optimized) (Desulfonema ishimotonii); assay: cell_activity; settings: HEK293FT, citrine-Csx30-DHFR degron reporter
Chain of Cas7-11-Csx29 complex (mammalian codon-optimized) (Desulfonema ishimotonii) (chain, as listed by the source): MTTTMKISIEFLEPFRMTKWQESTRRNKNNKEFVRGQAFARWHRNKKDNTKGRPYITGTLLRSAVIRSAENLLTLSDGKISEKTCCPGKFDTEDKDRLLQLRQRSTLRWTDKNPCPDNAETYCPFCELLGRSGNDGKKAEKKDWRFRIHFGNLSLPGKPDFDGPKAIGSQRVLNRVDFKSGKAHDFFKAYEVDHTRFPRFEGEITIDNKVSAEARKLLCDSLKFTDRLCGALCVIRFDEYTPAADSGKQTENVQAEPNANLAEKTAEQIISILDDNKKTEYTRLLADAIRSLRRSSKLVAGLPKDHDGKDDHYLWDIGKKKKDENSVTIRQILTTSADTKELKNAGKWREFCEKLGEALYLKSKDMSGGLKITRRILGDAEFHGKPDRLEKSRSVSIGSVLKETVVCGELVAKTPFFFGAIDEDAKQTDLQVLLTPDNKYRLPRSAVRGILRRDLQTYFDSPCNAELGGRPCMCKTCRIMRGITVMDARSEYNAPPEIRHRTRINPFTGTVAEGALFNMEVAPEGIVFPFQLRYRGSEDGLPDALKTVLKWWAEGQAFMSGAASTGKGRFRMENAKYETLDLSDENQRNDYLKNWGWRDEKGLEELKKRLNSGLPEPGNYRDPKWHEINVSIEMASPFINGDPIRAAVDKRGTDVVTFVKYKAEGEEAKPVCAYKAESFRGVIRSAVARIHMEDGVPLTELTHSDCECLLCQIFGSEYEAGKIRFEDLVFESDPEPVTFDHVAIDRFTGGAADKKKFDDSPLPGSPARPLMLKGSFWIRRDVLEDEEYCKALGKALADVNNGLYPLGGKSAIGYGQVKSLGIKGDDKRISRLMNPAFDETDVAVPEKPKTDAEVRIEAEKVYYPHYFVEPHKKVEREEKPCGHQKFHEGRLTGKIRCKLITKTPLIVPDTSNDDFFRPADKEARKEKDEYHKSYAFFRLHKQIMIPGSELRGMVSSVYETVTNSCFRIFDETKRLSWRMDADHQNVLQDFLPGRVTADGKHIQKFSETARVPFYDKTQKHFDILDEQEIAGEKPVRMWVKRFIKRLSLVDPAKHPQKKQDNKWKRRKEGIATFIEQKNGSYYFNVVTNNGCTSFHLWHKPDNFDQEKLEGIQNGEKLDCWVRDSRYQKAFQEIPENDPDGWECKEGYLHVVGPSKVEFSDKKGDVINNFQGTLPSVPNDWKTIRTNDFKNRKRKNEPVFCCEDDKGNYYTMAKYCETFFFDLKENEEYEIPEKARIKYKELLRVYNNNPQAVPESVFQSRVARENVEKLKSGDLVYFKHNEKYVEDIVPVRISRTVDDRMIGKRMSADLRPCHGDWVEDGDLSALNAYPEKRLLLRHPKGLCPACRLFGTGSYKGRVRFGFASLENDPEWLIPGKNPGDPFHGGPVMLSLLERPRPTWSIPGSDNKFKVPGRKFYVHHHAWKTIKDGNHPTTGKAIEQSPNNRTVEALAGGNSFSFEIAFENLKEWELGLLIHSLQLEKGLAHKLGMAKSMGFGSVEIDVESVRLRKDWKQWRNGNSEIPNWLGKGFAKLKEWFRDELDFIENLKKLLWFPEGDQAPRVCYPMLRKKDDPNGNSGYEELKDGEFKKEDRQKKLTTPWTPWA

[3] = system: T1, D. ishimotonii Csx30, full-length
T1 sequence: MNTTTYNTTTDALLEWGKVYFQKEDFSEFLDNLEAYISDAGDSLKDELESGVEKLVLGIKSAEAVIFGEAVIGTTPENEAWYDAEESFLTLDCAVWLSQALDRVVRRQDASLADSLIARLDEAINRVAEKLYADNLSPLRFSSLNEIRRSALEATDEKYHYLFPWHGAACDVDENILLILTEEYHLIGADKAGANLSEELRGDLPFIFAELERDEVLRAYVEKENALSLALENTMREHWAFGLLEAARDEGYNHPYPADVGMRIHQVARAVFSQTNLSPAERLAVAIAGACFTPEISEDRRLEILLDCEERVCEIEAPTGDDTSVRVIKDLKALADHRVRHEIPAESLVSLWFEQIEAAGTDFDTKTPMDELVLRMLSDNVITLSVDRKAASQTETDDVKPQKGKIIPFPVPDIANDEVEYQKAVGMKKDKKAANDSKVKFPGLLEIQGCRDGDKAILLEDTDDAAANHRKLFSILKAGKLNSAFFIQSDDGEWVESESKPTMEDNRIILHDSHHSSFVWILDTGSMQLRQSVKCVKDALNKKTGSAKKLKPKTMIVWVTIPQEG

[4] = molecular target: T2, N-terminal fragment of Csx30 (residues 1-427) (Desulfonema ishimotonii); assay: gel filtration (Superdex 200 Increase) and SDS-PAGE after cleavage by dCas7-11-crRNA-Csx29-tgRNA
T2 construct: Made by Csx29 cleavage of Csx30 in the gel-filtration experiment; expressed as such in the growth assays; also called Csx30-1
T2 chain: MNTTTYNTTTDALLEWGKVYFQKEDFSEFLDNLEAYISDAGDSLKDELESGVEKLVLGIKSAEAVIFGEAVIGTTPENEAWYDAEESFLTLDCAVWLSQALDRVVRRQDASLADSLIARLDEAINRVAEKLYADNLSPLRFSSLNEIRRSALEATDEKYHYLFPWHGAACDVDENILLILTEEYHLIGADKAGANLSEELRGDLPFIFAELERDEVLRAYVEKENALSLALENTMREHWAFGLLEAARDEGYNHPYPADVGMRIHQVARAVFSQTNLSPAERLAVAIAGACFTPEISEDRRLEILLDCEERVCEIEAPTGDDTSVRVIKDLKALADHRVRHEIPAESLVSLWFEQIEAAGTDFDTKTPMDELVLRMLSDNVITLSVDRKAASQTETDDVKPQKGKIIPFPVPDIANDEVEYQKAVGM

[5] = molecular target: T3, dCas7-11-Csx29 complex (Cas7-11 D429A/D654A with Csx29) (Desulfonema ishimotonii); assay: structure; cryo-EM 2.84 A; guide-target duplex with U4/C10 flipped out; PFS C(-1) and A(-2) contacted; no PAM; 1 mM MgCl2; settings: tags: MBP-Cas7-11-His6; His6-Twin-Strep-SUMO-Csx29
T3 sequence (chain, as listed by the source D429A D654A D429A D654A): as the sequence (chain, as listed by the source) above, with D429A, D654A counted along it
Method: (§1) The Cas7-11-crRNA-Csx29-tgRNA complex was reconstituted by mixing the purified Cas7-11-crRNA-Csx29 complex and the target RNA, at a molar ratio of 1:4. The complex was purified by size-exclusion chromatography on a Superose 6 Increase 10/300 column (GE Healthcare), equilibrated with buffer E (20 mM HEPES-NaOH, pH 7.0, 150 mM NaCl, 1 mM MgCl₂, and 1 mM DTT). The peak fraction containing Cas7-11-crRNA-Csx29-tgRNA was analyzed by TBE-urea gel, and concentrated to an A₂₆₀ of 3.0, using an Amicon Ultra-4 Centrifugal Filter Unit (MWCO 50 kDa). Cryo-EM grids were glow-discharged using PIB-10 Ion Bombarder (JEOL, Japan) with 10 mA current for 3 min. The sample (3 μL) was applied to freshly glow-discharged Au 300 mesh R1.2/1.3 grids (Quantifoil) in a Vitrobot Mark IV (FEI) at 4° C. under 100% humidity conditions, and the excess solution of the sample was blotted with filter paper (Agar Scientific) with a waiting time of 10 s and a blotting time of 4 s. The grids were plunge-frozen into liquid ethane cooled at liquid nitrogen temperature. […] The sample was applied onto freshly glow-discharged Au 300 mesh R0.6/1 grids (Quantifoil) in a Vitrobot Mark IV under similar conditions to those for the Cas7-11-crRNA-Csx29-tgRNA complex. […] Micrographs were recorded at a nominal magnification of ×105,000 with a pixel size of 0.83 Å in a total exposure of 48 e⁻/Å² per 48 frames with exposure time of 2.5 s. […]

[6] = molecular target: T3, dCas7-11-Csx29 complex (Cas7-11 …); assay: structure; cryo-EM 2.49 A, target-free; 5' tag anchored by Cas7.1/Cas7.2; settings: tags: MBP-Cas7-11-His6; His6-Twin-Strep-SUMO-Csx29
Method: as §1

[7] = molecular target: T4, D. ishimotonii Csx30, full-length
T4 chain: T1 sequence

citrine fluorescence in HEK293FT cells [1]: 3 fold
Molecule: Csx29, mammalian codon-optimized, expressed in HEK293FT cells with Cas7-11 (enzyme)

Molecule: Gluc-targeting guide RNA ; Gaussia luciferase mRNA target
activity (fold citrine fluorescence) [2]: 3

Molecule: Csx29 H615A/C658A (catalytically inactivated Csx29)
in vitro cleavage of Csx30 (SDS-PAGE) [3]: The H615A/C658A mutations in Csx29 abolished the Csx30 cleavage

binding result [4]: no binding
B1: C-terminal fragment of Csx30 (residues 428-565) (other)
chain: KKDKKAANDSKVKFPGLLEIQGCRDGDKAILLEDTDDAAANHRKLFSILKAGKLNSAFFIQSDDGEWVESESKPTMEDNRIILHDSHHSSFVWILDTGSMQLRQSVKCVKDALNKKTGSAKKLKPKTMIVWVTIPQEG
notes: Made by Csx29 cleavage of Csx30; also called Csx30-2

B2: crRNA (38 nt, 15-nt 5' tag + 23-nt spacer) ; target RNA with non-matching PFS (tgRNA/CTR) (ssRNA ; ssRNA)
RNA 1: UUGAUGUCACGGAACCUUUGUUGUCUUCGACAUGGGUA
RNA 2: GGAUUACCCAUGUCGAAGACAACAAAGCAAGGC
binding result [5]: binds

Molecule: UUGAUGUCACGGAACCUUUGUUGUCUUCGACAUGGGUA (ssRNA) [crRNA (38 nt, 15-nt 5' tag + 23-nt spacer)]
binding result [6]: binds

B3: D. ishimotonii Csx29, expressed as His6-Twin-Strep-SUMO-Csx29 (protein)
chain: HHHHHHMSNPIRDIQDRLKTAKFDNKDDMMNLASSLYKYEKQLMDSSEATLCQQGLSNRPNSFSQLSQFRDSDIQSKAGGQTGKFWQNEYEACKNFQTHKERRETLEQIIRFLQNGAEEKDADDLLLKTLARAYFHRGLLYRPKGFSVPARKVEAMKKAIAYCEIILDKNEEESEALRIWLYAAMELRRCGEEYPENFAEKLFYLANDGFISELYDIRLFLEYTEREEDNNFLDMILQENQDRERLFELCLYKARACFHLNQLNDVRIYGESAIDNAPGAFADPFWDELVEFIRMLRNKKSELWKEIAIKAWDKCREKEMKVGNNIYLSWYWARQRELYDLAFMAQDGIEKKTRIADSLKSRTTLRIQELNELRKDAHRKQNRRLEDKLDRIIEQENEARDGAYLRRNPPCFTGGKREEIPFARLPQNWIAVHFYLNELESHEGGKGGHALIYDPQKAEKDQWQDKSFDYKELHRKFLEWQENYILNEEGSADFLVTLCREIEKAMPFLFKSEVIPEDRPVLWIPHGFLHRLPLHAAMKSGNNSNIEIFWERHASRYLPAWHLFDPAPYSREESSTLLKNFEEYDFQNLENGEIEVYAPSSPKKVKEAIRENPAILLLLCHGEADMTNPFRSCLKLKNKDMTIFDLLTVEDVRLSGSRILLGACESDMVPPLEFSVDEHLSVSGAFLSHKAGEIVAGLWTVDSEKVDECYSYLVEEKDFLRNLQEWQMAETENFRSENDSSLFYKIAPFRIIGFPAE
cleavage of Csx30 within the Csx30-Csx31-DiRpoE complex (gel filtration, SDS-PAGE) [7]: Like isolated Csx30, Csx30 in the Csx30-Csx31-DiRpoE complex was cleaved by the Cas7-11-Csx29 complex
in vitro cleavage of Csx30 (SDS-PAGE) [7]: Cas7-11-crRNA-Csx29 cleaves Csx30 into two fragments, Csx30-1 (-50 kDa) and Csx30-2 (-15 kDa), only in the presence of the tgRNA; also recorded: the D429A/D654A catalytic mutations in Cas7-11 ... unexpectedly, improved the Csx30 cleavage by Csx29
in vitro cleavage of Csx30 (SDS-PAGE) with target RNAs TR, CTR, NTR [7]: Csx30 was cleaved by the Cas7-11-Csx29 complex efficiently in the presence of CTR, but not TR and NTR
